In patent publication US20230272099A1 (Chugai, published 2023):
Residue numbers refer to the chain shown, from its start.

T1: human FcgRIIb extracellular domain (human, UniProt P31994 43-217)
T1 construct: extracellular domain; also called hFcgRIIb
T1 sequence (looked up): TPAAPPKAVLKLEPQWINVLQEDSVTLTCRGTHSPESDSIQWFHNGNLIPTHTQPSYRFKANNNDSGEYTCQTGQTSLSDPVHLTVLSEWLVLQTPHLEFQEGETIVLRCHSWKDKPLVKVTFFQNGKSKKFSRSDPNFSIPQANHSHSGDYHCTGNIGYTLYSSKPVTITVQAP

T2: human FcgRIIa type H extracellular domain (human, UniProt P12318 34-217)
T2 construct: extracellular domain; also called hFcgRIIaH
T2 sequence (looked up): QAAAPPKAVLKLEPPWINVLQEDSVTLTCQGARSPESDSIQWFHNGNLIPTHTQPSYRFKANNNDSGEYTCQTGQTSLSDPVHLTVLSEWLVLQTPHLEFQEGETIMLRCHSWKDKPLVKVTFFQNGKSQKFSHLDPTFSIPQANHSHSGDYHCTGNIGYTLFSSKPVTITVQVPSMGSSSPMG

T3: human FcgRIIa type R extracellular domain (human, UniProt P12318 34-217)
T3 construct: extracellular domain; also called hFcgRIIaR
T3 sequence (looked up): T2 sequence (looked up) with H134R

B1: A375-G1T3/B167-Lamlib (antibody, human IgG1, lambda)
heavy: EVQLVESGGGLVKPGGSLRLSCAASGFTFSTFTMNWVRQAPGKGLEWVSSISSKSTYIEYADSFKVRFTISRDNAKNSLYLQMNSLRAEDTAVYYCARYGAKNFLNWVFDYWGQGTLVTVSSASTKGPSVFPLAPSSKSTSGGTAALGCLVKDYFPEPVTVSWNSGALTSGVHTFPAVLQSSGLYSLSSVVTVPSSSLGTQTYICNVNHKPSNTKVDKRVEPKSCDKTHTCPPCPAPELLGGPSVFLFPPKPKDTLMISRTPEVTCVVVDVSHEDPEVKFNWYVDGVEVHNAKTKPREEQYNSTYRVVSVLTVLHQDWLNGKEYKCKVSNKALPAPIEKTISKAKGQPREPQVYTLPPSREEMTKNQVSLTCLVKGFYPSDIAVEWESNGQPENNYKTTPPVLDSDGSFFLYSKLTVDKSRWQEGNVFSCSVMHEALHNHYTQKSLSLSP
light: QSALTQPPSASGSPGQTVTISCTGTRYDVGYYEYVSWYQQHPGKAPKLMIYETSKRLSGVPDRFSGSKSGNTASLTVSGLQAEDEADYYCSSYRYEHQVSFGGGTKLTVLGQPKAAPSVTLFPPSSEELQANKATLVCLISDFYPGAVTVAWKADSSPVKAGVETTTPSKQSNNKYAASSYLSLTPEQWKSHRSYSCQVTHEGSTVEKTVAPTECS
notes: copies: 2 + 2
B2: A375-MY201a/B167-Lamlib (antibody, human IgG1, lambda)
heavy: EVQLVESGGGLVKPGGSLRLSCAASGFTFSTFTMNWVRQAPGKGLEWVSSISSKSTYIEYADSFKVRFTISRDNAKNSLYLQMNSLRAEDTAVYYCARYGAKNFLNWVFDYWGQGTLVTVSSASTKGPSVFPLAPSSKSTSGGTAALGCLVKDYFPEPVTVSWNSGALTSGVHTFPAVLQSSGLYSLSSVVTVPSSSLGTQTYICNVNHKPSNTKVDKRVEPKSCDKTHTCPPCPAPELLNGPSVFLFPPKPKDTLMISRTPEVTCVVVDVSDEDPEVKFNWYVDGVEVHNAKTKPREEQYNSTYRVVSVLTVLHQDWLNGKEYKCKVSNKALPKPIEKTISKAKGQPREPQVYTLPPSREEMTKNQVSLTCLVKGFYPSDIAVEWESNGQPENNYKTTPPVLDSDGSFFLYSKLTVDKSRWQQGNVFSCSVMHEALHNHYTQKSLSLSP
light: B1 light
notes: copies: 2 + 2
B3: A375-MY518a/B167-Lamlib (antibody, human IgG1, lambda)
heavy: B2 heavy with L240W, Q300L, K331T
light: B1 light
notes: copies: 2 + 2
B4: A375-P587/B167-Lamlib (antibody, human IgG1, lambda)
heavy: EVQLVESGGGLVKPGGSLRLSCAASGFTFSTFTMNWVRQAPGKGLEWVSSISSKSTYIEYADSFKVRFTISRDNAKNSLYLQMNSLRAEDTAVYYCARYGAKNFLNWVFDYWGQGTLVTVSSASTKGPSVFPLAPSSKSTSGGTAALGCLVKDYFPEPVTVSWNSGALTSGVHTFPAVLQSSGLYSLSSVVTVPSSSLGTQTYICNVNHKPSNTKVDKKVEPKSCDKTHTCPPCPAPDLLGGDSVFLFPPKPKDTLMISRTPEVTCVVIDVAEEDGEVKFNWYVDGVEVHNAKTKPREEQYNSTYRVVSVLTVLHQDWLNGKEYKCKVSNKALPAPIEKTISKAKGQPREPQVYTLPPSRDELTKNQVSLTCLVKGFYPSDIAVEWESNGQPENNYKTTPPVLDSDGSFFLYSKLTVDKSRWQQGNVFSCSVMHEALHNHYTQKSLSLSP
light: B1 light
notes: copies: 2 + 2
B5: A375-P253/B167-Lamlib (antibody, human IgG1, lambda)
heavy: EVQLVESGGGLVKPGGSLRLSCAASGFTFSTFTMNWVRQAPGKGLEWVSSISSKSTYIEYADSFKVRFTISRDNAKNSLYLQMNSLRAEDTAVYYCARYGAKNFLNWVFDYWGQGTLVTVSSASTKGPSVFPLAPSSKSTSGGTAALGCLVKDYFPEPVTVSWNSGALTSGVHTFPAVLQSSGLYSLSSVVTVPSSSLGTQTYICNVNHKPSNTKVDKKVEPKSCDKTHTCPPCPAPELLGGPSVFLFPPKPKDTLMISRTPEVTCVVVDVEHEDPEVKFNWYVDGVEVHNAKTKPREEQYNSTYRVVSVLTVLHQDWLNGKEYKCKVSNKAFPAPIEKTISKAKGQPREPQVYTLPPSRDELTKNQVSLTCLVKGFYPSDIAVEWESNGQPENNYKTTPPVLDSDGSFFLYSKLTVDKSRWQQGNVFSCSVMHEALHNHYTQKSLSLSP
light: B1 light
notes: copies: 2 + 2
B6: A375-TT11/B167-Lamlib (antibody, human IgG1, lambda)
heavy: B2 heavy with R219K, L239Y, N241G, P243D, T255V, D273H, T312P
light: B1 light
notes: copies: 2 + 2
B7: A375-MY518/B167-Lamlib (antibody, human IgG1, lambda)
heavy: B2 heavy with R219K, L240W, Q300L, K331T
light: B1 light
notes: copies: 2 + 2
B8: A375-MY201aPh/B167-Lamlib (antibody, human IgG1, lambda)
heavy: B2 heavy with L240W
light: B1 light
notes: copies: 2 + 2

Each binder was assayed against T4, human FcgRIIIa V158 extracellular domain (human, UniProt P08637 17-208) (assay: SPR 25C).
T4 construct: extracellular domain; also called hFcgRIIIaV
Protocol: (§1) Biacore T200 (GE Healthcare) was used to evaluate the binding activity to the respective human Fcγ receptor (hereafter referred to as FcγR). Measurement was performed at 25° C. using 50 mM phosphate, 150 mM NaCl, 0.05 w/v %-P20, pH 7.4 as buffer. About 1000 RU of antibody was captured using a sensor chip immobilized with CaptureSelect™ Human Fab-lambda Kinetics Biotin Conjugate (Thermo Fisher Scientific) as a molecule for ligand capturing. Human FcγR was diluted to 8 nM for FcγRIa and 1000 nM for other FcγR in the measurement buffer, and it was interacted to the captured antibody. The binding activity of each antibody to FcγR was assessed by calculating the binding amount of FcγR (RU) per unit amount of antibody using Biacore T200 Evaluation Software 2.0.

T4 sequence (P08637 17-208 F176V): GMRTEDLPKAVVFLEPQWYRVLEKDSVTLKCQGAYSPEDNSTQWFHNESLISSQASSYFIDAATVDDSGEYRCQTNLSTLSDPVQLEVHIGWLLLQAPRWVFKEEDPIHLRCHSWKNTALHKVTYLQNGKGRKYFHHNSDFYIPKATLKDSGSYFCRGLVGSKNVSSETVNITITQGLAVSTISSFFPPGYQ

Row | Binder | binding per 1RU antibody [RU] | relative binding (A375-G1T3/B167-Lamlib=1)
1 | B1 | 0.07 | 1
2 | B2 | 0.0024 | 0.03
3 | B3 | 0.0009 | 0.01
4 | B4 | 0.0001 | 0
5 | B5 | 0.0019 | 0.03
6 | B6 | -0.001 | -0.01
7 | B7 | 0.0015 | 0.02
8 | B8 | 0.0011 | 0.02

These binders were tested against T5, human FcgRIIIa F158 extracellular domain (human, UniProt P08637 17-208) (assay: SPR 25C).
T5 construct: extracellular domain; also called hFcgRIIIaF
Protocol: as §1

T5 sequence (P08637 17-208): as the sequence (P08637 17-208 F176V) above, with V160F counted along it

Row | Binder | binding per 1RU antibody [RU] | relative binding (A375-G1T3/B167-Lamlib=1)
9 | B1 | 0.0213 | 1
10 | B2 | 0.0007 | 0.04
11 | B3 | 0.0006 | 0.03
12 | B4 | 0.0001 | 0
13 | B5 | 0.0056 | 0.26
14 | B6 | -0.0009 | -0.04
15 | B7 | 0.0009 | 0.04
16 | B8 | 0.0007 | 0.03

What follows are binders tested against T1, human FcgRIIb extracellular domain (assay: SPR 25C).
Protocol: as §1

Row | Binder | binding per 1RU antibody [RU] | relative binding (A375-G1T3/B167-Lamlib=1)
17 | B1 | 0.011 | 1
18 | B2 | 0.0401 | 3.66
19 | B3 | 0.0489 | 4.46
20 | B4 | 0.143 | 13
21 | B5 | 0.156 | 14.3
22 | B6 | 0.0477 | 4.35
23 | B7 | 0.0482 | 4.4
24 | B8 | 0.0313 | 2.85

These binders were tested against T6, human FcgRIa extracellular domain (human, UniProt P12314 16-292) (assay: SPR 25C).
T6 construct: extracellular domain; also called hFcgRIa
Protocol: as §1

T6 sequence (P12314 16-292): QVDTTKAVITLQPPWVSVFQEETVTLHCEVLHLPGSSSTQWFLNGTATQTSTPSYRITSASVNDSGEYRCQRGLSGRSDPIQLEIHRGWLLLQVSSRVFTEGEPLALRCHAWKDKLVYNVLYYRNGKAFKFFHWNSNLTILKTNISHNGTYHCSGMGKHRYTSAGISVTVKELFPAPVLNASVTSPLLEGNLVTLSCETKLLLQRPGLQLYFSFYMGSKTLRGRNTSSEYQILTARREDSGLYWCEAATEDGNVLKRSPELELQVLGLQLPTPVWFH

Row | Binder | binding per 1RU antibody [RU] | relative binding (A375-G1T3/B167-Lamlib=1)
25 | B1 | 0.0813 | 1
26 | B2 | 0.0396 | 0.49
27 | B3 | 0.0033 | 0.04
28 | B4 | 0.0962 | 1.18
29 | B5 | 0.0937 | 1.15
30 | B7 | 0.002 | 0.02
31 | B8 | 0.004 | 0.05

Each binder was assayed against T2, human FcgRIIa type H extracellular … (assay: SPR 25C).
Protocol: as §1

Row | Binder | binding per 1RU antibody [RU] | relative binding (A375-G1T3/B167-Lamlib=1)
32 | B1 | 0.0567 | 1
33 | B2 | 0.0534 | 0.94
34 | B3 | 0.0479 | 0.84
35 | B4 | 0.0029 | 0.05
36 | B5 | 0.0497 | 0.88
37 | B6 | 0.002 | 0.03
38 | B7 | 0.0465 | 0.82
39 | B8 | 0.0328 | 0.58

These binders were tested against T3, human FcgRIIa type R extracellular … (assay: SPR 25C).
Protocol: as §1

Row | Binder | binding per 1RU antibody [RU] | relative binding (A375-G1T3/B167-Lamlib=1)
40 | B1 | 0.0463 | 1
41 | B2 | 0.0338 | 0.73
42 | B3 | 0.047 | 1.01
43 | B4 | 0.0371 | 0.8
44 | B5 | 0.168 | 3.62
45 | B7 | 0.046 | 0.99
46 | B8 | 0.0335 | 0.72

Each binder was assayed against human FcRn (human, UniProt P55899 24-290; P61769 21-119) (assay: SPR 25C pH 6.0, steady state).
Protocol: Biacore T200 (GE Healthcare) was used to assess the binding activity to human FcRn. Measurement was performed at 25° C. using 50 mM phosphate, 150 mM NaCl, 0.05 w/v %-P20, pH 6.0 as buffer. Human FcRn proteins used for this determination were prepared by the procedure described in WO2010107110. About 400 RU of antibody was captured using a sensor chip immobilized with CaptureSelect™ Human Fab-lambda Kinetics Biotin Conjugate (Thermo Fisher Scientific) as a molecule for ligand capturing, followed by the binding of human FcRn diluted in measuring buffer. The activity of the respective antibodies to bind FcRn was assessed by calculating KD(mol/L) by the steady-state model using Biacore T200 Evaluation Software 2.0.

Sequence of human FcRn (P55899 24-290 limits assumed, chain 1 of 2): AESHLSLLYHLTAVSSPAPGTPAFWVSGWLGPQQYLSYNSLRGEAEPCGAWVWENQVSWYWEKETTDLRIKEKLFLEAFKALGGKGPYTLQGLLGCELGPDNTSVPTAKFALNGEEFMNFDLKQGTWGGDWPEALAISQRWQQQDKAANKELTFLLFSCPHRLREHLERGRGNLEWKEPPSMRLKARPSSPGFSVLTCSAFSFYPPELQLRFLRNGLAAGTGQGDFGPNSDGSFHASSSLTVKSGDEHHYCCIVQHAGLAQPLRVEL
Sequence of human FcRn (P61769 21-119 limits assumed, chain 2 of 2): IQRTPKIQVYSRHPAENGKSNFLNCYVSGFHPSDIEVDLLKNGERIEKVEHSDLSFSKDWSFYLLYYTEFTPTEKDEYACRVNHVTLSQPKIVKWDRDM

Row | Binder | Kd [nM]
47 | B1 | 1270
48 | B2 | 1190
49 | B3 | 1320
50 | B4 | 1700
51 | B5 | 1420
52 | B6 | 1560
53 | B7 | 1270
54 | B8 | 1180
